Assay [1] addresses T1, CTNNB1 S37F peptide on HLA-A*02:01 (human).
T1 peptide: YLDSGIHFGA
As to the kind of experiment: CD137 by flow cytometry on GFP+ CD8+ PBMC-derived T cells transduced with pCDH-CTNNB1; T2 cells pulsed with a 10x dilution series of peptide from 1 µg/ml, 24 h; dose-dependent; full-length, on cells. A general note: A flow cytometer gives signals particle by particle.

In assay [2] the target is T2, CTNNB1 wild type (S37) peptide on HLA-A*02:01 (human).
T2 peptide: YLDSGIHSGA
As to the kind of experiment: activation reporter or marker.

The target of assay [3] is T1, CTNNB1 S37F peptide on HLA-A*02:01. As to the kind of experiment: CD69 by flow cytometry on GFP+ JRT (J.RT3-T3.5) cells transduced with pCDH-CTNNB1; T2 cells pulsed with a 10x dilution series of peptide from 1 µg/ml, 16 h; dose-dependent; full-length, on cells.
Assay [4] concerns the target mutated CTNNB1^S37F peptide presented by HLA-A2 on target cells (T2 cells pulsed with the peptide; HUTU80 tumor cells with endogenous CTNNB1^S37F) (human). The assay can be described thus: cell-based or functional assay.

B1: CTNNB1^S37F peptide specific TCR (the inventive TCR) (TCR, V domains shown)
Valpha: AQKVTQAQTEISVVEKEDVTLDCVYETRDTTYYLFWYKQPPSGELVFLIRRNSFDEQNEISGRYSWNFQKSTSSFNFTITASQVVDSAVYFCALSERPGYSTLTFGKGTMLLVSP
Vbeta: DAGVIQSPRHEVTEMGQEVTLRCKPISGHDYLFWYRQTMMRGLELLIYFNNNVPIDDSGMPEDRFSAKMPNASFSTLKIQPSEPRDSAVYFCASGTPSTYEQYFGPGTRLTVT
On to B1, for which, in assay [1], the “lowest activating peptide concentration (twofold CD8+CD137+ over no peptide)” value turned out to be 1 ng/mL. Besides, the binding result in assay [2] is “no recognition”. Besides, the “lowest activating peptide concentration (twofold CD69+ over no peptide)” value in assay [3] was roughly 0.5 ng/mL.

B2: inventive TCR specific for the mutated CTNNB1^S37F peptide in the context of HLA-A2, with murine constant regions, expressed from lentiviral vector pCDH-CTNNB1 … (TCR)
TCR alpha: AQKVTQAQTEISVVEKEDVTLDCVYETRDTTYYLFWYKQPPSGELVFLIRRNSFDEQNEISGRYSWNFQKSTSSFNFTITASQVVDSAVYFCALSERPGYSTLTFGKGTMLLVSPDIQNPEPAVYQLKDPRSQDSTLCLFTDFDSQINVPKTMESGTFITDKTVLDMKAMDSKSNGAIAWSNQTSFTCQDIFKETNATYPSSDVPCDATLTEKSFETDMNLNFQNLSVMGLRILLLKVAGFNLLMTLRLWSS
TCR beta: DAGVIQSPRHEVTEMGQEVTLRCKPISGHDYLFWYRQTMMRGLELLIYFNNNVPIDDSGMPEDRFSAKMPNASFSTLKIQPSEPRDSAVYFCASGTPSTYEQYFGPGTRLTVTEDLRNVTPPKVSLFEPSKAEIANKQKATLVCLARGFFPDHVELSWWVNGKEVHSGVSTDPQAYKESNYSYCLSSRLRVSATFWHNPRNHFRCQVQFHGLSEEDKWPEGSPKPVTQNISAEAWGRADCGITSASYQQGVLSATILYEILLGKATLYAVLVSTLVVMAMVKRKNS
B2: in assay [4], the percentage of CD8+CD137+ cells in gated GFP+ transduced PBMC T cells after 24 h co-culture with peptide-pulsed T2 cells; lowest peptide concentration giving a twofold increase over no peptide was found to be 1 ng/mL and the percentage of CD69+ cells in gated GFP+ JRT cells after 16 h co-culture with peptide-pulsed T2 cells; lowest peptide concentration giving a twofold increase over no peptide is 0.5 ng/mL.

(Values after patent US20240390423A1 (published 2024).)
